Experimental data taken from patent US8465945B2, “Method for production and use of mite group 1 proteins” (Merck Patent GmbH, priority 1999, dated 2013).

Columns and labels:
[1] = tested on: IgE from pooled mite-allergic human sera; experiment: Monoclonal Capture ELISA (Example 8B, Table 7); format: binding
Procedure: (§1) Assays were carried out as follows. A microtiter plate as described in Example 5 was coated overnight at 4° C. with 100 ng/well of anti-Der f 1 protein monoclonal antibody 6A8, denoted herein as anti-Der f 1 MAb 6A8, provided by Dr. Martin Chapman. The plate was washed in the manner described above. The following proteins were then added to wells, having been diluted in Assay Buffer in a 2-fold dilution series, from 0.75 to 50 ng/well: Heska native Derf1, P. pastoris-expressed PDerf1303b, and E. coli-expressed PDerf1303c. After incubation for 1 hour at room temperature, plates were washed as described in Example 5. Then 100 μl per well of a 1:1000 dilution in Assay Buffer of biotinylated anti-Der f 1 monoclonal antibody 4C1, also denoted anti-Der f 1 MAb 4C1, provided by Dr. Martin Chapman, was added for 1 hour at room temperature. Plates were washed, streptavidin-HRP conjugate was added, and plates were developed as described in Example 5.
B. The Der f 1 proteins described in Example 8B were reacted as described in Example 6 with a pool of serum samples collected from 16 mite-allergic human patients.

[2] = tested on: IgE from mite-allergic or normal human sera; experiment: ELISA, binding of IgE from human sera to coated Der f 1 proteins or mite extracts, detected with FcεR1α-biotin
[3] = tested on: IgE from mite-allergic dog sera; experiment: ELISA, binding of IgE from dog sera to coated Der f 1 proteins or mite extracts, detected with FcεR1α-biotin
Procedure: Native or recombinant Der f 1 proteins in 100 μl CBC buffer (50 mM sodium carbonate, pH 9.6) were coated onto wells (100 ng per well) of Immulon II microtiter plates (available from Dynex Technologies, Chantilly, Va.) by incubation at 4° C., covered, overnight. Excess fluid was removed and wells were blocked with 200 μl Assay Buffer (4% fetal calf serum (available from Summit Laboratories, Fort Collins, Colo.) in phosphate buffered saline (PBS, recipe in Sambrook, ibid.), plus 0.05% Tween-20 (available from Sigma, St. Louis, Mo.)) for one hour at room temperature. Plates were then washed for 4 cycles on an automatic plate washer (Ultrawash, available from Dynatech Laboratories) using PBS with 0.05% Tween-20. […] Control wells were treated identically except that no serum was added. Plates were then washed as described above. Biotinylated human IgE receptor alpha chain (FcεR1α-biotin) (100 μl of 1.3 ng/ml) prepared as described in U.S. Pat. No. 5,945,294, ibid., was added and incubated for one hour at room temperature. After this incubation, plates were washed as described above. Streptavidin-horseradish peroxidase conjugate (0.5 mg/ml, available from KPL Labs, Gaithersburg, Md.) was added at a 1:5000 dilution in Assay Buffer for one hour at room temperature, after which plates were washed as described above. TMB Peroxidase substrate system, 2 part (available from KPL Labs, #0-76-00), added at 100 μl per well, was used according to the manufacturer's directions. The color reaction was allowed to proceed until good color development was reached (about 10-15 min); then the reaction was stopped with 100 μl per well of 1 M phosphoric acid. Bound IgE was determined by measuring absorbance (Optical Density, or OD) at 450 nm (nanometers) using an ELISA plate reader (such as Spectramax”, Molecular Devices, Sunnyvale, Calif.). Background OD readings in the control wells were subtracted from all numbers. Results are reported in Tables 1, 2 and 3 as OD multiplied by 1000. OD numbers greater than 100 are considered to be positive for a reaction with IgE. P. pastoris-expressed proteins are denoted in the Tables as Pichia expressed proteins.

[4] = tested on: anti-Der f 1 MAb 6A8 (capture) and anti-Der f 1 MAb 4C1 (detection); experiment: Monoclonal Capture ELISA; format: binding
Procedure: as §1

B1: PDerf1303d: P. pastoris HCY288-expressed Der f 1 lacking N-glycosylation site, asparagine 133 replaced by glutamine (SEQ ID NO:38) (protein, listed as Dermatophagoides farinae)
chain: RPASIKTFEEFKKAFNKNYATVEEEEVARKNFLESLKYVEANKGAINHLSDLSLDEFKNRYLMSAEAFEQLKTQFDLNAETSACRINSVNVPSELDLRSLRTVTPIRMQGGCGSCWAFSGVAATESAYLAYRQTSLDLSEQELVDCASQHGCHGDTIPRGIEYIQQNGVVEERSYPYVAREQRCRRPNSQHYGISNYCQIYPPDVKQIREALTQTHTAIAVIIGIKDLRAFQHYDGRTIIQHDNGYQPNYHAVNIVGYGSTQGDDYWIVRNSWDTTWGDSGYGYFQAGNNLMMIEQYPYVVIM
- OD, Monoclonal Capture ELISA ([1]; 0.39 ng protein per well): 1380 OD
- OD, Monoclonal Capture ELISA ([1]; 0.78 ng protein per well): 1963 OD
- OD, Monoclonal Capture ELISA ([1]; 1.55 ng protein per well): 2626 OD
- OD, Monoclonal Capture ELISA ([1]; 3.1 ng protein per well): 2913 OD
- OD, Monoclonal Capture ELISA ([1]; 6.25 ng protein per well): 2991 OD
- OD, Monoclonal Capture ELISA ([1]; 12.5 ng protein per well): 3037 OD
- OD, Monoclonal Capture ELISA ([1]; 25 ng protein per well): 3007 OD
- OD, bound IgE ([2]; Table 6, pool of sera from 16 mite-allergic human patients, 6.2 ng protein per well): 88 OD
- OD, bound IgE ([2]; Table 6, pool of sera from 16 mite-allergic human patients, 12.5 ng protein per well): 347 OD
- OD, bound IgE ([2]; Table 6, pool of sera from 16 mite-allergic human patients, 25 ng protein per well): 591 OD
- OD, bound IgE ([2]; Table 6, pool of sera from 16 mite-allergic human patients, 50 ng protein per well): 779 OD
- OD, bound IgE ([2]; Table 6, pool of sera from 16 mite-allergic human patients, 100 ng protein per well): 1097 OD
- OD, bound IgE ([2]; Table 6, pool of sera from 16 mite-allergic human patients, 200 ng protein per well): 1448 OD

B2: Heska native Derf1: Native purified Der f 1 protein, purified as described in U.S. Ser. No. 09/292,225 (protein)
chain: TSACRINSVNVPSELDLRSLRTVTPIRMQGGCGSCWAFSGVAATESAYLAYRNTSLDLSEQELVDCASQHGCHGDTIPRGIEYIQQNGVVEERSYPYVAREQRCRRPNSQHYGISNYCQIYPPDVKQIREALTQTHTAIAVIIGIKDLRAFQHYDGRTIIQHDNGYQPNYHAVNIVGYGSTQGDDYWIVRNSWDTTWGDSGYGYFQAGNNLMMIEQYPYVVIM
- OD, bound IgE ([2]; Assay Number 1, serum human 1916): 51 OD multiplied by 1000
- OD, bound IgE ([2]; Assay Number 1, serum human3848): 3123 OD multiplied by 1000
- OD, bound IgE ([2]; Assay Number 1, serum human 3958): 3368 OD multiplied by 1000
- OD, bound IgE ([2]; Assay Number 1, serum human 3960): 2279 OD multiplied by 1000
- OD, bound IgE ([2]; Assay Number 1, serum human 3961): 1479 OD multiplied by 1000
- OD, bound IgE ([2]; Assay Number 1, serum human 3987): 3741 OD multiplied by 1000
- OD, bound IgE ([2]; Assay Number 1, serum human 4289): 777 OD multiplied by 1000
- OD, bound IgE ([2]; Assay Number 1, serum human 4467): 1302 OD multiplied by 1000
- OD, bound IgE ([2]; Assay Number 1, serum human 5207): 3051 OD multiplied by 1000
- OD, bound IgE ([2]; Assay Number 1, serum human pool): 1732 OD multiplied by 1000
- OD, bound IgE ([2]; Assay Number 2, serum Heska human B): 0 OD multiplied by 1000
- OD, bound IgE ([2]; Assay Number 2, serum Heska human C): 0 OD multiplied by 1000
- OD, bound IgE ([2]; Assay Number 2, serum Heska human D): 0 OD multiplied by 1000
- OD, bound IgE ([2]; Assay Number 2, serum Heska human E): 19 OD multiplied by 1000
- OD, bound IgE ([2]; Assay Number 2, serum Heska human F): 0 OD multiplied by 1000
- OD, bound IgE ([2]; Assay Number 2, serum Heska human G): 1 OD multiplied by 1000
- OD, bound IgE ([2]; Assay Number 2, serum Heska human H): 0 OD multiplied by 1000
- OD, bound IgE ([2]; Assay Number 2, serum Heska human I): 1 OD multiplied by 1000
- OD, bound IgE ([2]; Assay Number 2, serum Heska human J): 1 OD multiplied by 1000
- OD, bound IgE ([2]; Assay Number 2, serum Heska human K): 0 OD multiplied by 1000
- OD, bound IgE ([2]; Assay Number 2, serum Heska human L): 0 OD multiplied by 1000
- OD, bound IgE ([2]; Assay Number 2, serum Heska human M): 51 OD multiplied by 1000
- OD, bound IgE ([2]; Assay Number 2, serum Heska human N): 885 OD multiplied by 1000
- OD, bound IgE ([2]; Assay Number 2, serum Heska human O): 0 OD multiplied by 1000
- OD, bound IgE ([2]; Assay Number 2, serum Heska human P): 0 OD multiplied by 1000
- OD, bound IgE ([2]; Assay Number 2, serum Heska human Q): 0 OD multiplied by 1000
- OD, bound IgE ([2]; Assay Number 2, serum Heska human R): 1 OD multiplied by 1000
- OD, bound IgE ([2]; Assay Number 2, serum human 1916): 62 OD multiplied by 1000
- OD, bound IgE ([2]; Assay Number 2, serum human 3848): 2362 OD multiplied by 1000
- OD, bound IgE ([2]; Assay Number 2, serum human 3958): 2235 OD multiplied by 1000
- OD, bound IgE ([2]; Assay Number 2, serum human 3960): 1308 OD multiplied by 1000
- OD, bound IgE ([2]; Assay Number 2, serum human 3961): 784 OD multiplied by 1000
- OD, bound IgE ([2]; Assay Number 2, serum human 3987): 2664 OD multiplied by 1000
- OD, bound IgE ([2]; Assay Number 2, serum human 4289): 589 OD multiplied by 1000
- OD, bound IgE ([2]; Assay Number 2, serum human 4467): 1051 OD multiplied by 1000
- OD, bound IgE ([2]; Assay Number 2, serum human 5207): 2746 OD multiplied by 1000
- OD, bound IgE ([2]; Assay Number 2, serum human pool): 2599 OD multiplied by 1000
- OD, bound IgE ([3]; Assay Number 1, serum dog pool): 750 OD multiplied by 1000
- OD, bound IgE ([3]; Assay Number 1, serum dog-1): 3 OD multiplied by 1000
- OD, bound IgE ([3]; Assay Number 1, serum dog-2): 2245 OD multiplied by 1000
- OD, bound IgE ([3]; Assay Number 1, serum dog-3): 2839 OD multiplied by 1000
- OD, bound IgE ([3]; Assay Number 2, dog sera pool A 146): 449 OD multiplied by 1000
- OD, bound IgE ([3]; Assay Number 2, dog sera pool KS338): 101 OD multiplied by 1000
- OD, protein captured by MAb 6A8 and detected by MAb 4C1 ([4]; 0.75 ng protein per well): 1740 OD
- OD, protein captured by MAb 6A8 and detected by MAb 4C1 ([4]; 1.5 ng protein per well): 2043 OD
- OD, protein captured by MAb 6A8 and detected by MAb 4C1 ([4]; 2.5 ng protein per well): 2291 OD
- OD, protein captured by MAb 6A8 and detected by MAb 4C1 ([4]; 3.1 ng protein per well): 2219 OD
- OD, protein captured by MAb 6A8 and detected by MAb 4C1 ([4]; 6.25 ng protein per well): 2197 OD
- OD, protein captured by MAb 6A8 and detected by MAb 4C1 ([4]; 25 ng protein per well): 2142 OD
- OD, protein captured by MAb 6A8 and detected by MAb 4C1 ([4]; 50 ng protein per well): 2183 OD
